Assay results reported in US7041790B2, “Fibrinogen binding moieties” (Dyax Corp., priority 2002, dated 2006).
Bridges are numbered along the chain shown (N, C = ends).

Target: T1, purified human fibrinogen (Homo sapiens, UniProt P02671+P02675+P02679)
T1 construct: purchased Calbiochem 341576
T1 sequence (P02671 20-629 limits assumed): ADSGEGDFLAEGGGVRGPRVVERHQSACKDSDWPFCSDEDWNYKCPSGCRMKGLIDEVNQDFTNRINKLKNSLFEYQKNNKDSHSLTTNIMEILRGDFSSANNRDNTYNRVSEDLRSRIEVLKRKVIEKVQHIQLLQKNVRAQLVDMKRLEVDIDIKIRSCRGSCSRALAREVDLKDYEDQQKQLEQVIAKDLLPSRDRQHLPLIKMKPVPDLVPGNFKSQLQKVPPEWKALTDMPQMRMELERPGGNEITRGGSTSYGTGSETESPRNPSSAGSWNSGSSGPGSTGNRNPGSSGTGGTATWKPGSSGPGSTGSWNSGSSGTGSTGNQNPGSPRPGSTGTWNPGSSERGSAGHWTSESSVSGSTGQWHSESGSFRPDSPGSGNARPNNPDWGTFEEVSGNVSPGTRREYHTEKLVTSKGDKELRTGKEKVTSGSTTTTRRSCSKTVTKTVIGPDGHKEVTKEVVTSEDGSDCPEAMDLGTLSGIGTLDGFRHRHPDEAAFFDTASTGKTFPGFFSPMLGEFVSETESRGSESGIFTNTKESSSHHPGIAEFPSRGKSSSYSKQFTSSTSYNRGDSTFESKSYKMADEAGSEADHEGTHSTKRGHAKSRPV
T1 sequence (P02675 31-491): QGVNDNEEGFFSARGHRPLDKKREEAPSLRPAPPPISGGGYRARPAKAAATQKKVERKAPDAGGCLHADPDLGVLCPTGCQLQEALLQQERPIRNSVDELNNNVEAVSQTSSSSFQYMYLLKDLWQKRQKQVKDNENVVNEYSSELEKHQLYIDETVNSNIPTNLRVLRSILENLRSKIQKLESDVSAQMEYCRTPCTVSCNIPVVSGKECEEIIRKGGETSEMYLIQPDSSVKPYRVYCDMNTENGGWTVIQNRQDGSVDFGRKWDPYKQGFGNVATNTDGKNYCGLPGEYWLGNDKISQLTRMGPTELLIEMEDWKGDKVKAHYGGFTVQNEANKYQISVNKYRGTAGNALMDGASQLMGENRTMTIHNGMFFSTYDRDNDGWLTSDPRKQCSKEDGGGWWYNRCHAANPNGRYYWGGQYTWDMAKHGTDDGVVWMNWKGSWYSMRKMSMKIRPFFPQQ
T1 sequence (P02679 27-433 limits assumed): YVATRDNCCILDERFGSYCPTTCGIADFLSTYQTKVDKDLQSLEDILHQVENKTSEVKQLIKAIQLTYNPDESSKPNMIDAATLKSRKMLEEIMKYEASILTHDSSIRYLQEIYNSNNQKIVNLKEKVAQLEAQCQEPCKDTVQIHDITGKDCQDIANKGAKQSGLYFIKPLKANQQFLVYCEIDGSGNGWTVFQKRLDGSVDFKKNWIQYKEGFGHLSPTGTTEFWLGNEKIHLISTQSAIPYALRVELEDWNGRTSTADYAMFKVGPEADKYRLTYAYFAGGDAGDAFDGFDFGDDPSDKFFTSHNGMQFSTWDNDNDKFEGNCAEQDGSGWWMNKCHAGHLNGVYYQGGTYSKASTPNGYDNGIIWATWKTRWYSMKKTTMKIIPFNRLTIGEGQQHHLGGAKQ
Assay: Purified fibrinogen binding capacity of fibrinogen binding columns
Conditions: purified fibrinogen 0.5 mg/ml in PBS injected continuously, eluted with glycine 0.1M pH 2.5
Description: FIG. 1 is a chromatogram illustrating the purified fibrinogen binding capacity of a fibrinogen binding column utilizing the fibrinogen binding peptide of SEQ ID NO:48 and having a ligand density of 2.0 μM/ml resin. Purified fibrinogen (0.5 mg/ml in PBS) was injected continuously onto the column until the A280 reading reached a plateau. The column was then washed with PBS until a baseline reading was obtained and then eluted with glycine buffer (0.1M, pH 2.5). The eluted fraction (major peak) was collected and analyzed by HPLC Size Exclusion Chromatography (SEC). The capacity of the column was calculated to be 2.076 mg fibrinogen/ml resin.
FIG. 2 is a chromatogram illustrating the purified fibrinogen binding capacity of a fibrinogen binding column utilizing the fibrinogen binding peptide of SEQ ID NO:48 and having a ligand density of 4.0 μM/ml resin. Purified fibrinogen (0.5 mg/ml in PBS) was injected continuously onto the column until the A280 reading reached a plateau. The column was then washed with PBS until a baseline reading was obtained and then eluted with glycine buffer (0.1M, pH 2.5). The eluted fraction (major peak) was collected and analyzed by HPLC Size Exclusion Chromatography (SEC). The capacity of the column was calculated to be 4.1 mg fibrinogen/ml resin. […]

- fibrinogen binding capacity of the column (ligand density 2.0 μM/ml resin): 2.076 mg fibrinogen/ml resin
- fibrinogen binding capacity of the column (ligand density 4.0 μM/ml resin): 4.1 mg fibrinogen/ml resin
Substance: SEQ ID NO:48: fibrinogen binding polypeptide containing the cyclic core peptide of SEQ ID NO: 43 (Ac-AEGTGSLYLCNSYPMHPYCNPGK-NH2; disulfide 10-19 (inferred))
